Measurements published in patent US20130344085A1 (published 2013).
Positions count from the first letter of the chain named.

B1: anti-PCSK9 antibody 508.20.84 (antibody, V domains shown)
VH: EVQLVESGGGLVQPGGSLRLSCAASGFTFTGYAIHWVRQAPGKGLEWVARISPANGNTNYADSVKGRFTISADTSKNTAYLQMNSLRAEDTAVYYCARWIGSRELYIMDYWGQGTLVTVSS
VL: DIQMTQSPSSLSASVGDRVTITCRASQDVSTAVAWYQQKPGKAPKLLIYSASFLYSGVPSRFSGSGSGTDFTLTISSLQPEDFATYYCQQSYPAPSTFGQGTKVEIK
B2: YW508.20.33b (antibody, V domains shown)
VH: B1 VH with T30S, G31S, Y32T
VL: DIQMTQSPSSLSASVGDRVTITCRASQDVSTAVAWYQQKPGKAPKLLIYSASFLYSGVPSRFSGSGSGTDFTLTISSLQPEDFATYYCQQAYPALHTFGQGTKVEIKR
B3: YW508.20.84 (antibody, V domains shown)
VH: B1 VH
VL: B1 VL
B4: YW508.20.28b (antibody, V domains shown)
VH: B1 VH with G31R, Y32H, A33T, H35N
VL: B1 VL with P93R, A94I, P95Q, S96P
B5: YW508.20b (antibody, V domains shown)
VH: B1 VH
VL: B1 VL with P93T, A94T, S96P
B6: anti-PCSK9 antibody 508.20.06 (antibody, V domains shown)
VH: B1 VH
VL: B1 VL with A94S, S96A
B7: anti-PCSK9 antibody 508.20.28b (antibody, V domains shown)
VH: B1 VH with G31R, Y32H, A33T, H35N
VL: B1 VL with P93R, A94I, P95Q, S96P
B8: anti-PCSK9 antibody 508.20.04b (antibody, V domains shown)
VH: B1 VH
VL: B1 VL with S96A
B9: YW508.20.33b reformatted into human IgG1 having a heavy chain with SEQ ID NO: 35 and a light chain with SEQ ID NO: 36 (antibody, V domains shown)
VH: B1 VH with T30S, G31S, Y32T
VL: B2 VL
B10: YW508.20.04b (antibody, V domains shown)
VH: B1 VH
VL: B1 VL with S96A
B11: YW508.20.06 (antibody, V domains shown)
VH: B1 VH
VL: B1 VL with A94S, S96A

Experiments:
[1] = target: Human PCSK9 (Genbank EF692496) containing a histidine (His)8 C-terminal tag (UniProt Q8NBP7 31-692); test: BIAcore SPR
biotinylated human PCSK9 = biotinylated human PCSK9 (UniProt Q8NBP7 31-692, biotinylated (sites not given)); test: competition binding ELISA (PCSK9-LDLR)
murine PCSK9 = test: BIAcore SPR
Cyno PCSK9 = test: BIAcore SPR
Rat PCSK9 = test: BIAcore SPR
rhesus PCSK9 = test: BIAcore SPR

Row | Binder | Kd [1] | IC50 (biotinylated human PCSK9) | Kd (murine PCSK9) | also measured
1 | B1 | 0.481 nM | 1.39 nM |  | 
2 | B2 |  |  | 0.0123 nM | Kd (Cyno PCSK9): 0.0624 nM; Kd (Rat PCSK9): 0.0182 nM; Kd (rhesus PCSK9): 4.09 nM
3 | B3 |  |  | 0.135 nM | 
4 | B4 |  |  | 0.323 nM | 
5 | B5 |  | 15.2 nM |  | 
6 | B6 | 0.628 nM | 1 nM |  | 
7 | B7 | 0.349 nM | 1.05 nM |  | 
8 | B8 | 0.757 nM | 0.92 nM |  | 
9 | B9 | 0.408 nM | 1.31 nM |  | 
10 | B10 |  |  | 0.117 nM | 
11 | B11 |  |  | 0.201 nM | 
